Measurements taken from patent publication US9957297B2, “Template-fixed peptidomimetics as inhibitors of FPR1” (POLYPHOR AG, priority 2011, dated 2018).
Bridges are numbered along the chain shown (N, C = ends). [ ]: non-standard residue; d: D form.

B1: cyclo(-Ala-His-Ala-Cys-Trp-Gly-^DPro-Trp-Thr-Ile-Cys-Tyr-Gln-Lys-^DPro-Pro-) (peptide)
peptide: cyclo(AHACWG[dP]WTICYQK[dP]P)
modifications: disulfide 4-11
SMILES: CC[C@H](C)[C@@H]1NC(=O)[C@H]([C@@H](C)O)NC(=O)[C@H](Cc2c[nH]c3ccccc23)NC(=O)[C@H]2CCCN2C(=O)CNC(=O)[C@H](Cc2c[nH]c3ccccc23)NC(=O)[C@@H]2CSSC[C@H](NC1=O)C(=O)N[C@@H](Cc1ccc(O)cc1)C(=O)N[C@@H](CCC(N)=O)C(=O)N[C@@H](CCCCN)C(=O)N1CCC[C@@H]1C(=O)N1CCC[C@H]1C(=O)N[C@@H](C)C(=O)N[C@@H](Cc1c[nH]cn1)C(=O)N[C@@H](C)C(=O)N2
B2: cyclo(-Lys-His-Ala-Cys-His-Gly-^DPro-Trp-Thr-Ile-Cys-Tyr-Gln-Lys-^DPro-Pro-) (peptide)
peptide: cyclo(KHACHG[dP]WTICYQK[dP]P)
modifications: disulfide 4-11
SMILES: CC[C@H](C)[C@@H]1NC(=O)[C@H]([C@@H](C)O)NC(=O)[C@H](Cc2c[nH]c3ccccc23)NC(=O)[C@H]2CCCN2C(=O)CNC(=O)[C@H](Cc2c[nH]cn2)NC(=O)[C@@H]2CSSC[C@H](NC1=O)C(=O)N[C@@H](Cc1ccc(O)cc1)C(=O)N[C@@H](CCC(N)=O)C(=O)N[C@@H](CCCCN)C(=O)N1CCC[C@@H]1C(=O)N1CCC[C@H]1C(=O)N[C@@H](CCCCN)C(=O)N[C@@H](Cc1c[nH]cn1)C(=O)N[C@@H](C)C(=O)N2
B3: cyclo(-Tyr-His-Lys-Cys-His-Gly-^DPro-Trp-Thr-Ile-Cys-Tyr-Glu-Lys-^DPro-Glu-) (peptide)
peptide: cyclo(YHKCHG[dP]WTICYEK[dP]E)
modifications: disulfide 4-11
SMILES: CC[C@H](C)[C@@H]1NC(=O)[C@H]([C@@H](C)O)NC(=O)[C@H](Cc2c[nH]c3ccccc23)NC(=O)[C@H]2CCCN2C(=O)CNC(=O)[C@H](Cc2c[nH]cn2)NC(=O)[C@@H]2CSSC[C@H](NC1=O)C(=O)N[C@@H](Cc1ccc(O)cc1)C(=O)N[C@@H](CCC(=O)O)C(=O)N[C@@H](CCCCN)C(=O)N1CCC[C@@H]1C(=O)N[C@@H](CCC(=O)O)C(=O)N[C@@H](Cc1ccc(O)cc1)C(=O)N[C@@H](Cc1c[nH]cn1)C(=O)N[C@@H](CCCCN)C(=O)N2
B4: cyclo(-Tyr-His-Ala-Cys-His-Gly-^DPro-Trp-Thr-Ile-Cys-Tyr-Glu-Lys-^DPro-Pro-) (peptide)
peptide: cyclo(YHACHG[dP]WTICYEK[dP]P)
modifications: disulfide 4-11
SMILES: CC[C@H](C)[C@@H]1NC(=O)[C@H]([C@@H](C)O)NC(=O)[C@H](Cc2c[nH]c3ccccc23)NC(=O)[C@H]2CCCN2C(=O)CNC(=O)[C@H](Cc2c[nH]cn2)NC(=O)[C@@H]2CSSC[C@H](NC1=O)C(=O)N[C@@H](Cc1ccc(O)cc1)C(=O)N[C@@H](CCC(=O)O)C(=O)N[C@@H](CCCCN)C(=O)N1CCC[C@@H]1C(=O)N1CCC[C@H]1C(=O)N[C@@H](Cc1ccc(O)cc1)C(=O)N[C@@H](Cc1c[nH]cn1)C(=O)N[C@@H](C)C(=O)N2
B5: cyclo(-Tyr-His-Ala-Cys-Trp-Gly-^DPro-Trp-Thr-Ile-Cys-Tyr-Gln-Lys-^DLys-Pro-) (peptide)
peptide: cyclo(YHACWG[dP]WTICYQK[dK]P)
modifications: disulfide 4-11
SMILES: CC[C@H](C)[C@@H]1NC(=O)[C@H]([C@@H](C)O)NC(=O)[C@H](Cc2c[nH]c3ccccc23)NC(=O)[C@H]2CCCN2C(=O)CNC(=O)[C@H](Cc2c[nH]c3ccccc23)NC(=O)[C@@H]2CSSC[C@H](NC1=O)C(=O)N[C@@H](Cc1ccc(O)cc1)C(=O)N[C@@H](CCC(N)=O)C(=O)N[C@@H](CCCCN)C(=O)N[C@H](CCCCN)C(=O)N1CCC[C@H]1C(=O)N[C@@H](Cc1ccc(O)cc1)C(=O)N[C@@H](Cc1c[nH]cn1)C(=O)N[C@@H](C)C(=O)N2
B6: cyclo(-Tyr-His-Ala-Cys-His-Gly-^DAla-Trp-Thr-Ile-Cys-Tyr-Gln-Lys-^DPro-Pro-) (peptide)
peptide: cyclo(YHACHG[dA]WTICYQK[dP]P)
modifications: disulfide 4-11
SMILES: CC[C@H](C)[C@@H]1NC(=O)[C@H]([C@@H](C)O)NC(=O)[C@H](Cc2c[nH]c3ccccc23)NC(=O)[C@@H](C)NC(=O)CNC(=O)[C@H](Cc2c[nH]cn2)NC(=O)[C@@H]2CSSC[C@H](NC1=O)C(=O)N[C@@H](Cc1ccc(O)cc1)C(=O)N[C@@H](CCC(N)=O)C(=O)N[C@@H](CCCCN)C(=O)N1CCC[C@@H]1C(=O)N1CCC[C@H]1C(=O)N[C@@H](Cc1ccc(O)cc1)C(=O)N[C@@H](Cc1c[nH]cn1)C(=O)N[C@@H](C)C(=O)N2
B7: cyclo(-His-His-Ala-Cys-Trp-Gly-^DPro-Trp-Thr-Ile-Cys-Tyr-Gln-Lys-^DPro-Pro-) (peptide)
peptide: cyclo(HHACWG[dP]WTICYQK[dP]P)
modifications: disulfide 4-11
SMILES: CC[C@H](C)[C@@H]1NC(=O)[C@H]([C@@H](C)O)NC(=O)[C@H](Cc2c[nH]c3ccccc23)NC(=O)[C@H]2CCCN2C(=O)CNC(=O)[C@H](Cc2c[nH]c3ccccc23)NC(=O)[C@@H]2CSSC[C@H](NC1=O)C(=O)N[C@@H](Cc1ccc(O)cc1)C(=O)N[C@@H](CCC(N)=O)C(=O)N[C@@H](CCCCN)C(=O)N1CCC[C@@H]1C(=O)N1CCC[C@H]1C(=O)N[C@@H](Cc1c[nH]cn1)C(=O)N[C@@H](Cc1c[nH]cn1)C(=O)N[C@@H](C)C(=O)N2
B8: cyclo(-Tyr-His-Ala-Cys-His-Gly-^DPro-Trp-Thr-Ile-Cys-Tyr-Thr-Lys-^DPro-Pro-) (peptide)
peptide: cyclo(YHACHG[dP]WTICYTK[dP]P)
modifications: disulfide 4-11
SMILES: CC[C@H](C)[C@@H]1NC(=O)[C@H]([C@@H](C)O)NC(=O)[C@H](Cc2c[nH]c3ccccc23)NC(=O)[C@H]2CCCN2C(=O)CNC(=O)[C@H](Cc2c[nH]cn2)NC(=O)[C@@H]2CSSC[C@H](NC1=O)C(=O)N[C@@H](Cc1ccc(O)cc1)C(=O)N[C@@H]([C@@H](C)O)C(=O)N[C@@H](CCCCN)C(=O)N1CCC[C@@H]1C(=O)N1CCC[C@H]1C(=O)N[C@@H](Cc1ccc(O)cc1)C(=O)N[C@@H](Cc1c[nH]cn1)C(=O)N[C@@H](C)C(=O)N2
B9: cyclo(-Tyr-His-Ala-Cys-Trp-Gly-^DAla-Trp-Thr-Ile-Cys-Tyr-Gln-Lys-^DPro-Pro-) (peptide)
peptide: cyclo(YHACWG[dA]WTICYQK[dP]P)
modifications: disulfide 4-11
SMILES: CC[C@H](C)[C@@H]1NC(=O)[C@H]([C@@H](C)O)NC(=O)[C@H](Cc2c[nH]c3ccccc23)NC(=O)[C@@H](C)NC(=O)CNC(=O)[C@H](Cc2c[nH]c3ccccc23)NC(=O)[C@@H]2CSSC[C@H](NC1=O)C(=O)N[C@@H](Cc1ccc(O)cc1)C(=O)N[C@@H](CCC(N)=O)C(=O)N[C@@H](CCCCN)C(=O)N1CCC[C@@H]1C(=O)N1CCC[C@H]1C(=O)N[C@@H](Cc1ccc(O)cc1)C(=O)N[C@@H](Cc1c[nH]cn1)C(=O)N[C@@H](C)C(=O)N2
B10: cyclo(-Tyr-His-Ala-Cys-Trp-Gly-^DPro-Trp-Thr-Ile-Cys-Tyr-Gln-Lys-^DAla-Pro-) (peptide)
peptide: cyclo(YHACWG[dP]WTICYQK[dA]P)
modifications: disulfide 4-11
SMILES: CC[C@H](C)[C@@H]1NC(=O)[C@H]([C@@H](C)O)NC(=O)[C@H](Cc2c[nH]c3ccccc23)NC(=O)[C@H]2CCCN2C(=O)CNC(=O)[C@H](Cc2c[nH]c3ccccc23)NC(=O)[C@@H]2CSSC[C@H](NC1=O)C(=O)N[C@@H](Cc1ccc(O)cc1)C(=O)N[C@@H](CCC(N)=O)C(=O)N[C@@H](CCCCN)C(=O)N[C@H](C)C(=O)N1CCC[C@H]1C(=O)N[C@@H](Cc1ccc(O)cc1)C(=O)N[C@@H](Cc1c[nH]cn1)C(=O)N[C@@H](C)C(=O)N2
B11: cyclo(-Tyr-His-Ala-Cys-Trp-Gly-^DPro-Trp-Thr-Ile-Cys-Tyr-Thr-Lys-^DPro-Pro-) (peptide)
peptide: cyclo(YHACWG[dP]WTICYTK[dP]P)
modifications: disulfide 4-11
SMILES: CC[C@H](C)[C@@H]1NC(=O)[C@H]([C@@H](C)O)NC(=O)[C@H](Cc2c[nH]c3ccccc23)NC(=O)[C@H]2CCCN2C(=O)CNC(=O)[C@H](Cc2c[nH]c3ccccc23)NC(=O)[C@@H]2CSSC[C@H](NC1=O)C(=O)N[C@@H](Cc1ccc(O)cc1)C(=O)N[C@@H]([C@@H](C)O)C(=O)N[C@@H](CCCCN)C(=O)N1CCC[C@@H]1C(=O)N1CCC[C@H]1C(=O)N[C@@H](Cc1ccc(O)cc1)C(=O)N[C@@H](Cc1c[nH]cn1)C(=O)N[C@@H](C)C(=O)N2
B12: cyclo(-His-Tyr-Ala-Cys-Trp-Gly-^DPro-Trp-Thr-Ile-Cys-Tyr-Gln-Lys-^DPro-Pro-) (peptide)
peptide: cyclo(HYACWG[dP]WTICYQK[dP]P)
modifications: disulfide 4-11
SMILES: CC[C@H](C)[C@@H]1NC(=O)[C@H]([C@@H](C)O)NC(=O)[C@H](Cc2c[nH]c3ccccc23)NC(=O)[C@H]2CCCN2C(=O)CNC(=O)[C@H](Cc2c[nH]c3ccccc23)NC(=O)[C@@H]2CSSC[C@H](NC1=O)C(=O)N[C@@H](Cc1ccc(O)cc1)C(=O)N[C@@H](CCC(N)=O)C(=O)N[C@@H](CCCCN)C(=O)N1CCC[C@@H]1C(=O)N1CCC[C@H]1C(=O)N[C@@H](Cc1c[nH]cn1)C(=O)N[C@@H](Cc1ccc(O)cc1)C(=O)N[C@@H](C)C(=O)N2
B13: cyclo(-Tyr-His-Ala-Cys-His-Gly-^DPro-Trp-Thr-Ile-Cys-Tyr-Gln-Lys-^DThr-Pro-) (peptide)
peptide: cyclo(YHACHG[dP]WTICYQK[dT]P)
modifications: disulfide 4-11
SMILES: CC[C@H](C)[C@@H]1NC(=O)[C@H]([C@@H](C)O)NC(=O)[C@H](Cc2c[nH]c3ccccc23)NC(=O)[C@H]2CCCN2C(=O)CNC(=O)[C@H](Cc2c[nH]cn2)NC(=O)[C@@H]2CSSC[C@H](NC1=O)C(=O)N[C@@H](Cc1ccc(O)cc1)C(=O)N[C@@H](CCC(N)=O)C(=O)N[C@@H](CCCCN)C(=O)N[C@H]([C@H](C)O)C(=O)N1CCC[C@H]1C(=O)N[C@@H](Cc1ccc(O)cc1)C(=O)N[C@@H](Cc1c[nH]cn1)C(=O)N[C@@H](C)C(=O)N2
B14: cyclo(-Tyr-His-Ala-Cys-Trp-Gly-^DPro-Trp-Thr-Ile-Cys-Tyr-Ala-Lys-^DPro-Pro-) (peptide)
peptide: cyclo(YHACWG[dP]WTICYAK[dP]P)
modifications: disulfide 4-11
SMILES: CC[C@H](C)[C@@H]1NC(=O)[C@H]([C@@H](C)O)NC(=O)[C@H](Cc2c[nH]c3ccccc23)NC(=O)[C@H]2CCCN2C(=O)CNC(=O)[C@H](Cc2c[nH]c3ccccc23)NC(=O)[C@@H]2CSSC[C@H](NC1=O)C(=O)N[C@@H](Cc1ccc(O)cc1)C(=O)N[C@@H](C)C(=O)N[C@@H](CCCCN)C(=O)N1CCC[C@@H]1C(=O)N1CCC[C@H]1C(=O)N[C@@H](Cc1ccc(O)cc1)C(=O)N[C@@H](Cc1c[nH]cn1)C(=O)N[C@@H](C)C(=O)N2

These binders were tested against T1, Formyl-Peptide Receptor 1 (UniProt P21462 1-350, limits assumed) (assay: cell-based or functional assay).
T1 sequence (looked up): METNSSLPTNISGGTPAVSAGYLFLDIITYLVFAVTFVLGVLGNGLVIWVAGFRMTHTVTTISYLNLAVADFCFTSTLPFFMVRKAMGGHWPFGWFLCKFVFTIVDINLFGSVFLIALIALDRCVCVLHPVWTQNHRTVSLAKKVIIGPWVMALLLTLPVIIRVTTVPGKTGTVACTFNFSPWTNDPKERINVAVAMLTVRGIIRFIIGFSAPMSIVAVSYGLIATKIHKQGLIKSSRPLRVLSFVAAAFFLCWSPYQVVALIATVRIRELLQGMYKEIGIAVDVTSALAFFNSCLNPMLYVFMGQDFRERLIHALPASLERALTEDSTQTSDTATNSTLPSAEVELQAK

Binder | β-Arrestin IC50 [nM]
B1 | 404
B2 | 590
B3 | 169
B4 | 189
B5 | 195
B6 | 458
B7 | 342
B8 | 598
B9 | 213
B10 | 133
B11 | 202
B12 | 735
B13 | 641
B14 | 278
